The supplement of paper PMC9116672
± gives the standard deviation of the averaged measurements or the uncertainty stated by the source.

What was measured:
[1] = duplex formation free energy ΔG50 (Van't Hoff fit of HRM Tm); higher = less stable duplex; details: temperature for dG: 50 °C, NaCl: 500 mM (unadjusted)
How it was run: (§1)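 DNA duplexes with phosphodiester or phosphorothioate strands (the latter mixed Rp/Sp) were annealed 1:1 and melted at 1–20 μM, with four replicate samples. Melting was in 1× NNE buffer (500 mM NaCl, pH 7.0) with 1× EvaGreen on a LightCycler96 (37 to 97°C, 0.1°C/s). Enthalpy and entropy come from a linear Van't Hoff regression of 1/Tm (Tm: peak of -dF/dT) against ln(CT/4), and free energy is extrapolated to 50°C. Values are not salt-adjusted, and errors are fit standard deviations.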

[2] = duplex formation entropy ΔS (Van't Hoff fit of HRM Tm); higher = smaller entropy loss on duplex formation; details: temperature for dG: 50 °C, NaCl: 500 mM (unadjusted)
How it was run: as §1

[3] = duplex formation enthalpy ΔH (Van't Hoff fit of HRM Tm); higher = less exothermic duplex formation; details: temperature for dG: 50 °C, NaCl: 500 mM (unadjusted)
How it was run: as §1

[4] = duplex melting temperature (HRM, EvaGreen); higher = more stable duplex
How it was run: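 Complementary DNA strands, either phosphodiester or phosphorothioate (Rp/Sp mixtures), were annealed 1:1 at 25 μM and diluted to 1–20 μM duplex in NNE buffer (500 mM NaCl, pH 7.0) containing 1× EvaGreen. Fluorescence at 470/514 nm was recorded on a LightCycler96 during heating from 37°C to 97°C at 0.1°C/s. The instrument software took the melting temperature as the peak of the negative dF/dT curve. Of four replicates, any without a clear peak were dropped and the remainder averaged.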

[5] = backbone: PO-PO (both strands phosphodiester DNA)
[6] = backbone: PS-PO (listed strand fully phosphorothioate, complement phosphodiester)
[7] = backbone: PS-PS (both strands fully phosphorothioate)
[8] = duplex concentration 1 µM, backbone: PO-PO (both strands phosphodiester DNA)
[9] = duplex concentration 1 µM, backbone: PS-PO (listed strand fully phosphorothioate, complement phosphodiester)
[10] = duplex concentration 2.5 µM, backbone: PO-PO (both strands phosphodiester DNA)
[11] = duplex concentration 2.5 µM, backbone: PS-PO (listed strand fully phosphorothioate, complement phosphodiester)
[12] = duplex concentration 5 µM, backbone: PO-PO (both strands phosphodiester DNA)
[13] = duplex concentration 5 µM, backbone: PS-PO (listed strand fully phosphorothioate, complement phosphodiester)
[14] = duplex concentration 7.5 µM, backbone: PO-PO (both strands phosphodiester DNA)
[15] = duplex concentration 7.5 µM, backbone: PS-PO (listed strand fully phosphorothioate, complement phosphodiester)
[16] = duplex concentration 7.5 µM, backbone: PS-PS (both strands fully phosphorothioate)
[17] = duplex concentration 10 µM, backbone: PO-PO (both strands phosphodiester DNA)
[18] = duplex concentration 10 µM, backbone: PS-PO (listed strand fully phosphorothioate, complement phosphodiester)
[19] = duplex concentration 10 µM, backbone: PS-PS (both strands fully phosphorothioate)
[20] = duplex concentration 15 µM, backbone: PO-PO (both strands phosphodiester DNA)
[21] = duplex concentration 15 µM, backbone: PS-PO (listed strand fully phosphorothioate, complement phosphodiester)
[22] = duplex concentration 15 µM, backbone: PS-PS (both strands fully phosphorothioate)
[23] = duplex concentration 20 µM, backbone: PO-PO (both strands phosphodiester DNA)
[24] = duplex concentration 20 µM, backbone: PS-PO (listed strand fully phosphorothioate, complement phosphodiester)
[25] = duplex concentration 20 µM, backbone: PS-PS (both strands fully phosphorothioate)
[26] = duplex concentration 1 µM, backbone: PS-PS (both strands fully phosphorothioate)
[27] = duplex concentration 2.5 µM, backbone: PS-PS (both strands fully phosphorothioate)
[28] = duplex concentration 5 µM, backbone: PS-PS (both strands fully phosphorothioate)

Sequence | duplex formation free energy ΔG50 [1, 5] [kcal/mol] | duplex formation free energy ΔG50 [1, 6] [kcal/mol] | duplex formation free energy ΔG50 [1, 7] [kcal/mol] | duplex formation entropy ΔS [2, 5] [cal/mol/K] | duplex formation entropy ΔS [2, 6] [cal/mol/K] | duplex formation entropy ΔS [2, 7] [cal/mol/K] | duplex formation enthalpy ΔH [3, 5] [kcal/mol] | duplex formation enthalpy ΔH [3, 6] [kcal/mol] | duplex formation enthalpy ΔH [3, 7] [kcal/mol] | duplex melting temperature [4, 8] [°C] | duplex melting temperature [4, 9] [°C] | duplex melting temperature [4, 10] [°C] | duplex melting temperature [4, 11] [°C] | duplex melting temperature [4, 12] [°C] | duplex melting temperature [4, 13] [°C] | duplex melting temperature [4, 14] [°C] | duplex melting temperature [4, 15] [°C] | duplex melting temperature [4, 16] [°C] | duplex melting temperature [4, 17] [°C] | duplex melting temperature [4, 18] [°C] | duplex melting temperature [4, 19] [°C] | duplex melting temperature [4, 20] [°C] | duplex melting temperature [4, 21] [°C] | duplex melting temperature [4, 22] [°C] | duplex melting temperature [4, 23] [°C] | duplex melting temperature [4, 24] [°C] | duplex melting temperature [4, 25] [°C] | duplex melting temperature [4, 26] [°C] | duplex melting temperature [4, 27] [°C] | duplex melting temperature [4, 28] [°C]
TAGACGCGGCCTCTTTCC | -16.4 ± 0.68 | -14.9 ± 0.32 | -13.4 ± 0.56 | -258 ± 24 | -272 ± 15 | -272 ± 32 | -99.8 ± 8.6 | -103 ± 5.1 | -101 ± 11 | 73.91 ± 0.44 | 67.6 | 74.76 ± 0.23 | 69 ± 0.71 | 76.52 ± 0.15 | 70.8 ± 0.46 | 77.7 ± 0.27 | 71.32 ± 0.62 | 66.47 ± 0.089 | 78.58 ± 0.21 | 72.01 ± 0.38 | 67.44 ± 0.059 | 79.83 ± 0.13 | 73.3 ± 0.19 | 68.13 ± 0.13 | 80.63 ± 0.22 | 73.84 ± 0.11 | 68.81 ± 0.13 |  |  | 
TATTCTGCCAATGGAAC | -12.43 ± 0.11 | -10.59 ± 0.059 | -8.755 ± 0.02 | -209 ± 6.6 | -200 ± 6.1 | -189 ± 6.7 | -79.9 ± 2.2 | -75.2 ± 2 | -69.8 ± 2.2 | 61.28 ± 0.28 | 52.9 | 63.72 ± 0.46 | 56.19 ± 0.12 | 65.46 ± 0.21 | 58.32 ± 0.085 | 66.751 ± 0.054 | 59.47 ± 0.085 | 51.303 ± 0.046 | 67.63 ± 0.082 | 60.21 ± 0.12 | 52.24 ± 0.13 | 68.883 ± 0.048 | 61.27 ± 0.062 | 53.39 ± 0.22 | 69.87 ± 0.1 | 62.27 ± 0.081 | 54.28 ± 0.14 | 45.3 ± 0.74 | 48.29 ± 0.081 | 50.06 ± 0.16
TCTACACCGCGA | -10.8 ± 0.19 | -9.65 ± 0.1 | -8.523 ± 0.038 | -135 ± 12 | -114 ± 9.5 | -111 ± 8.4 | -54.3 ± 4.1 | -46.4 ± 3.2 | -44.4 ± 2.7 |  |  |  |  | 62.45 ± 0.36 | 57 | 64.36 ± 0.22 | 58.2 ± 0.61 | 49.78 ± 0.41 | 65.78 ± 0.25 | 60.1 ± 0.43 | 52 ± 0.91 | 67.547 ± 0.058 | 61.71 ± 0.24 | 54.2 ± 1.4 | 68.14 ± 0.13 | 63.08 ± 0.18 |  | 41.3 ± 0.82 | 45.5 ± 0.56 | 48.18 ± 0.13
TCTCGCGGTTCCATTA | -12.1 ± 0.14 | -10.99 ± 0.07 | -9.954 ± 0.074 | -152 ± 7 | -165 ± 5.2 | -153 ± 8.8 | -61.4 ± 2.4 | -64.3 ± 1.7 | -59.3 ± 2.9 | 62.7 ± 1.2 | 56.3 | 67.08 ± 0.63 | 59.34 ± 0.38 | 68.7 ± 0.86 | 61.95 ± 0.17 | 70.24 ± 0.58 | 63.21 ± 0.18 | 58.48 ± 0.13 | 71.59 ± 0.45 | 64.2 ± 0.12 | 59.42 ± 0.15 | 73.26 ± 0.38 | 65.517 ± 0.063 | 60.81 ± 0.1 | 74.35 ± 0.18 | 66.61 ± 0.15 | 61.53 ± 0.15 | 50.4 ± 1.6 | 54.64 ± 0.23 | 57.28 ± 0.084
TGCCATGTTGAAAACC | -12.4 ± 0.13 | -10.63 ± 0.058 | -8.447 ± 0.02 | -207 ± 7.6 | -203 ± 5.8 | -203 ± 7.4 | -79.2 ± 2.6 | -76.1 ± 1.9 | -74 ± 2.4 | 61.32 ± 0.21 |  | 63.56 ± 0.48 | 56.23 ± 0.2 | 65.51 ± 0.22 | 58.37 ± 0.066 | 66.6 ± 0.21 | 59.53 ± 0.1 | 49.82 ± 0.18 | 67.59 ± 0.15 | 60.34 ± 0.13 | 50.73 ± 0.22 | 68.82 ± 0.18 | 61.44 ± 0.11 | 51.73 ± 0.34 | 69.71 ± 0.33 | 62.27 ± 0.073 | 52.86 ± 0.13 | 44.3 ± 0.54 | 46.98 ± 0.17 | 48.71 ± 0.25
TGTAAGACTTCTGCCAGAAA | -16.7 ± 0.45 | -12.4 ± 0.17 | -10.11 ± 0.025 | -339 ± 20 | -231 ± 11 | -196 ± 4.2 | -126 ± 6.9 | -87.2 ± 3.7 | -73.5 ± 1.4 | 69.04 ± 0.47 |  | 70.48 ± 0.32 | 62.5 ± 0.74 | 71.8 ± 0.086 | 64.36 ± 0.58 | 72.66 ± 0.2 | 65.49 ± 0.58 | 57.54 ± 0.21 | 73.31 ± 0.13 | 66.18 ± 0.34 | 58.2 | 73.99 ± 0.12 | 67.16 ± 0.27 |  |  | 67.83 ± 0.18 |  | 51.3 ± 0.66 | 54 ± 0.63 | 56.14 ± 0.29
TGTCGCACCCTACTA | -12.1 ± 0.25 | -10.95 ± 0.05 | -9.838 ± 0.072 | -158 ± 12 | -165 ± 3.6 | -157 ± 9.5 | -63.3 ± 4.2 | -64.2 ± 1.2 | -60.7 ± 3.1 | 62.8 ± 2.6 |  | 66.1 | 59.14 ± 0.13 | 68.24 ± 0.43 | 61.72 ± 0.17 | 69.66 ± 0.3 | 62.92 ± 0.17 | 57.65 ± 0.22 | 71.02 ± 0.2 | 64.01 ± 0.12 | 58.5 ± 0.23 | 72.66 ± 0.19 | 65.449 ± 0.05 | 59.67 ± 0.14 | 73.62 ± 0.15 | 66.44 ± 0.098 | 60.75 ± 0.17 | 49.8 ± 0.68 | 53.99 ± 0.17 | 56.51 ± 0.21
